How the values were obtained:
Type in all cases: binding
[1] = Glycan microarray analysis, 9-O-acetylated AcSTn
Method: (§1) Optimized glycan arrays comprise 71 chemically synthesized and well-defined glycans, most of which comprise Neu5Ac and Neu5Gc glycan pairs.
300 ml of epoxy blocking buffer is prepared by combining 15 ml of 2 M Tris buffer (pH 8) with 0.9 ml of 16.6 M ethanolamine and 284.1 ml of distilled water. The solution is filtered using a 0.2 μM nitrocellulose membrane. The epoxy buffer solution as well as 1 L of distilled water are pre-warmed to 50° C. Glass slides are arranged in a slide holder and quickly submerged in a staining tub with the warmed epoxy blocking buffer. Slides are incubated in the epoxy blocking buffer for 1 hour at 50° C. with periodic shaking to deactivate epoxy binding sites. Next, slides are rinsed and blocked with PBS with 1% OVA at 25° C. for one hour. Serum samples are diluted 1:1000 in PBS with 1% OVA and added to the glycan array for one hour at 25° C. After extensive washing, binding of polyclonal serum antibodies are detected by incubating glycan microarray slides with Cy3-conjugated anti-mouse IgG (Jackson Immunoresearch, West Grove, Pa.) for one hour. […]
18D2 and 18C7 clones were expanded and binding properties of these hybridomas were determined by glycan microarray analysis according to Example 4. […] No binding to Tn antigen or other glycans was detected.

[2] = Glycan array STn specificity and anti-STn antibody group; set-up: key to Group: Group 1 antibodies according to the invention are antibodies capable of binding AcSTn and GcSTn; Antibodies were assigned to Group 2 based on their ability to bind STn as well as some related structures that include an O-linkage to serine or threonine; Group 3 antibodies are antibodies capable of binding STn, but may also bind a broader set of related structures; Group 4 antibodies are capable of binding to both AcSTn and GcSTn as well as the un-sialylated Tn antigen
Method: as §1
300 ml of epoxy blocking buffer is prepared by combining 15 ml of 2 M Tris buffer (pH 8) with 0.9 ml of 16.6 M ethanolamine and 284.1 ml of distilled water. The solution is filtered using a […] nitrocellulose membrane. The epoxy buffer solution as well as 1 L of distilled water are pre-warmed to 50° C. Glass slides are arranged in a slide holder and quickly submerged in a staining tub with the warmed epoxy blocking buffer. Slides are incubated in the epoxy blocking buffer for 1 hour at 50° C. with periodic shaking to deactivate epoxy binding sites. Next, slides are rinsed and blocked with PBS with 1% OVA at 25° C. for one hour. Serum samples are diluted 1:1000 in PBS with 1% OVA and added to the glycan array for one hour at 25° C. After extensive washing, binding of polyclonal serum antibodies are detected by incubating glycan microarray slides with Cy3-conjugated anti-mouse IgG (Jackson Immunoresearch, West Grove, Pa.) for one hour. Slides are then washed extensively, dried and scanned with a Genepix 4000B scanner (Laser at 100%; gain at 350; 10 μm pixels). Raw data from scanned images are extracted using the Genepix software and analysis of raw data is carried out.
Based on characterization data, anti-STn antibodies developed from Group 6 and Group 8 mice were categorized by anti-STn group number. In some cases, antibodies were assigned to Group 1. Group 1 antibodies according to the invention are antibodies capable of binding AcSTn and GcSTn. Such antibodies may have the ability to associate with a wider range of STn structures. The large oval in FIG. 1A indicates the portion of STn recognized by Group 1 antibodies. […] Also listed in the Table is the antibody Isotype for each antibody as determined by the IsoStrip mouse monoclonal antibody isotyping kit (Roche Diagnostics GmbH, Manheim, Germany).

AcSTn-PAA ELISA = conditions: 200 ng/well PAA antigen; 1:5 dilutions from 1 μM
Method: (§2) Anti-STn serum titer is determined using a murine anti-STn bovine submaxillary mucin (BSM) ELISA together with serum profiles observed by glycan microarray. 96-well plates are coated with 1 μg/well of BSM and incubated overnight at 4° C. O-acetylation of BSM antigen is removed by treating wells with 0.1 M sodium hydroxide. Specific binding to STn is determined by treatment of wells with sodium periodate. Periodate treatment destroys the C6 side chain of sialic acid; therefore antibodies raised against STn should not bind to periodate-treated wells. Wells are blocked with PBS 1% ovalbumin (OVA). Serum samples to be assayed are serially diluted in PBS 1% OVA. […] Detection of anti-STn antibodies present in serum is determined using an HRP-conjugated polyclonal goat anti-mouse IgG antibody (Jackson Immunoresearch, West Grove, Pa.). […] Optical densities are measured at 490 nm using a Spectramax microplate reader (Molecular Devices, Sunnyvale, Calif.). The serum titer is obtained by comparison of OD values with a cutoff value calculated as two standard deviations above the mean of optical density values of the negative control. […]
(§3) 18D2 and 18C7 antibodies were further characterized by ELISA comprising antigens other than BSM. […] Binding of anti-STn antibodies was detected using a goat anti-mouse IgG-HRP conjugated antibody (Jackson Immunoresearch Laboratories, West Grove, Pa.). […]

GcSTn-PAA ELISA = conditions: 200 ng/well PAA antigen; 1:5 dilutions from 1 μM
Method: as §2, §3

EC50 (AcSTn-PAA ELISA): 1.71 nM
EC50 (GcSTn-PAA ELISA): 1.57 nM
B1: 18D2: anti-STn monoclonal antibody from mouse #4436; IgG2b κ; heavy chain SEQ ID NO 1, light chains SEQ ID NO 2 and 3 (antibody, V domains shown)
VH: QVTLKESGPGILQPSQTLSLTCSFSGFSLSTSNMGIGWIRQPSGKGLEWLAHIWWHDDKYYNPSLKSRLTISKDISNNQVFLKITSVDTADTATYYCAQVPFYYGTSFDVWGTGTTVTVSS
VL 1: DIVMTQSPATLSVTPGDRVSLSCRASQSISDYLHWYQQKSHESPRLLIKYASQSISGIPSRFSGSGSGSDFTLSINSVEPEDVGVYYCQNGHSFPLTFGAGTKLELK
VL 2: QIVLTQSPAIMSASPGETVTMTCSASSSITYMHWYQQKPGTSPKRWIYDTSKLASGVPARFSGSGSGTSYSLTISSMEAEDAATYYCHQRSSYTFGGGTKLEIKR
mean fluorescence intensity, Neu5,9Ac2-α2,6-GalNAc [1]: about 4,500
Glycan Array STn Specificity [2]: 100%
Group ([2]; assigned from flow cytometry and glycan array analysis): 1

— patent publication US20160264684A1, “GLYCAN-INTERACTING COMPOUNDS AND METHODS OF USE” (SIAMAB THERAPEUTICS, INC., priority 2013, published 2016)
